Measurements from patent US20140072613A1 (published 2014).

T1: LKB1(h) (human, UniProt Q15831 1-433)
T1 sequence (looked up): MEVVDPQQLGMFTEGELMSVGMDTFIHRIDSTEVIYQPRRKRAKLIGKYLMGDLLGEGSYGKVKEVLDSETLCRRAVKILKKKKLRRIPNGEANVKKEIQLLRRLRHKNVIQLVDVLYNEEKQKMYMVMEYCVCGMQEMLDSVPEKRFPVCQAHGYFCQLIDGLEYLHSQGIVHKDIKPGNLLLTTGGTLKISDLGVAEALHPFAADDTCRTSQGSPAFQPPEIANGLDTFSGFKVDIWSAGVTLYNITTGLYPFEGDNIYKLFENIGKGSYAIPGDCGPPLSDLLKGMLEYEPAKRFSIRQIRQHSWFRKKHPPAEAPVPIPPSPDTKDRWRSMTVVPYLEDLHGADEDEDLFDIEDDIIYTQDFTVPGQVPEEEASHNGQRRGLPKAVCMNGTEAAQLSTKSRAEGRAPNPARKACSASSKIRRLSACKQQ

T2: DDR2(h) (human, UniProt Q16832 422-855, limits assumed)
T2 sequence (looked up): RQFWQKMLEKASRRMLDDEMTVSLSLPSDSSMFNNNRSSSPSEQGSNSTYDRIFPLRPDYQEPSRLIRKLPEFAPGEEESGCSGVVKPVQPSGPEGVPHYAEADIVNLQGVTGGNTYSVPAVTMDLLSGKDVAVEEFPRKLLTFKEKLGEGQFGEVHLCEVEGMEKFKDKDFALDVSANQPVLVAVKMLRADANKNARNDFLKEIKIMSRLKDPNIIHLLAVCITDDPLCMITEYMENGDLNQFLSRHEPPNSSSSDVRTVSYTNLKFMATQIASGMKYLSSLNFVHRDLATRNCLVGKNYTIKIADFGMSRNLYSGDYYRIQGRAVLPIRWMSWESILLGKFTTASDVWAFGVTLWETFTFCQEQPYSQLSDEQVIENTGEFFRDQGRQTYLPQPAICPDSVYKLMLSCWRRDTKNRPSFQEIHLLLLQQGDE

T3: IKKα(h) (human, UniProt O15111 1-745)
T3 sequence (looked up): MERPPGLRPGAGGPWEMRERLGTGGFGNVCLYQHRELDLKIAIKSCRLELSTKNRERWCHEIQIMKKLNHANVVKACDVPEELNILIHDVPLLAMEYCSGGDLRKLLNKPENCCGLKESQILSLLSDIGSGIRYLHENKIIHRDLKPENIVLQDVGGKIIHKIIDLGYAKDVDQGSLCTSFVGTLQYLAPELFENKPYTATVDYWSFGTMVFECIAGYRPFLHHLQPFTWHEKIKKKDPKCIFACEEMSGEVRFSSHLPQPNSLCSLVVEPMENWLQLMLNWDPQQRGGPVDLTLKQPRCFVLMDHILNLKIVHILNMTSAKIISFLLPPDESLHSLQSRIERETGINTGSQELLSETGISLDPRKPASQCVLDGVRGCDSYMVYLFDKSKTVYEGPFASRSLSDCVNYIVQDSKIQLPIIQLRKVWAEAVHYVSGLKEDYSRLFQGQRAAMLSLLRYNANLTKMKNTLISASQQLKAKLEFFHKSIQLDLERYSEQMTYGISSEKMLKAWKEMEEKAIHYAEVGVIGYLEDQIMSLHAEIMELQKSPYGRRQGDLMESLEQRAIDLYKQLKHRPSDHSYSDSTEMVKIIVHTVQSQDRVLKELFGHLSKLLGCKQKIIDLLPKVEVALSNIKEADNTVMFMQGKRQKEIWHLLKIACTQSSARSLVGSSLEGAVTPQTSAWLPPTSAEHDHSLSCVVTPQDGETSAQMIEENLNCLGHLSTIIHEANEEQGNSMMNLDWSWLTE

T4: ULK3(h) (human, UniProt Q6PHR2 1-472, limits assumed)
T4 sequence (looked up): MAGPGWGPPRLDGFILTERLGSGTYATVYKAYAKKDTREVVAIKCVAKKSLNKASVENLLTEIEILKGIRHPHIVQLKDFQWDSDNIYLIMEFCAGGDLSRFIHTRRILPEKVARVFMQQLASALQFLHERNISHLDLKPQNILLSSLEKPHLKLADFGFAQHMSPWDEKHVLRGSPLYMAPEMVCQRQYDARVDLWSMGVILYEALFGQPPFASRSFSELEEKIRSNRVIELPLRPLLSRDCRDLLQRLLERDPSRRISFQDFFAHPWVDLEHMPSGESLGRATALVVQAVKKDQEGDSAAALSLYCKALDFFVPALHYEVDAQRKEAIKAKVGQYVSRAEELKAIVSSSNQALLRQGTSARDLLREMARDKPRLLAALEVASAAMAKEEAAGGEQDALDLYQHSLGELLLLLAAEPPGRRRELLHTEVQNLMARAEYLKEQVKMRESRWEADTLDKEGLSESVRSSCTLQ


Tests used:
Assay in all cases: cell-based or functional assay
[1] = target: JNK3(h) (human, UniProt P53779 1-464, limits assumed)
[2] = target: TrkB(h) (human, UniProt Q16620 455-822, limits assumed)
[3] = target: Pim-2(h) (human, UniProt Q9P1W9 1-311)
[4] = target: MSK2(h) (human, UniProt O75676 1-772, limits assumed)
[5] = target: T1, LKB1(h)
[6] = target: Ros(h) (human, UniProt P08922 1883-2347, limits assumed)
[7] = target: cKit(D816H)(h) (human, UniProt P10721 544-976)
[8] = target: Fyn(h) (human, UniProt P06241 1-537)
[9] = target: T2, DDR2(h)
[10] = target: EGFR(T790M,L858R)(h) (human, UniProt P00533 696-1210, limits assumed)
[11] = target: PAK6(h) (human, UniProt Q9NQU5 1-681, limits assumed)
[12] = target: T3, IKKα(h)
[13] = target: T4, ULK3(h)

Binder	% activity, 100 µM [1] [%]	% activity, 100 µM [2] [%]	% activity, 100 µM [3] [%]	% activity, 100 µM [4] [%]	% activity, 100 µM [5] [%]	% activity, 100 µM [6] [%]	% activity, 100 µM [7] [%]	% activity, 100 µM [8] [%]	% activity, 100 µM [9] [%]	% activity, 100 µM [10] [%]	% activity, 100 µM [11] [%]	% activity, 100 µM [12] [%]	% activity, 100 µM [13] [%]
FAKLAARLYRKALARQLGVAA [MMI-0300]	89	5	76	56	101	95	126	74	94	85	104	93	167
KAFAKLAARLYRKALARQLGVAA [MMI-0400]	70	8	92	52	89	99	143	54	95	78	100	87	147
